Laboratory results published in patent publication US20120207760A1.

What was measured:
[1] = biological target: recombinant homotrimeric HA, A/Anhui/1/05 H5N1 (Influenza A virus A/Anhui/1/05 (H5N1)); experiment: trimeric HA microarray, transfection set 3
[2] = biological target: recombinant homotrimeric HA, A/California/4/09 H1N1 (Influenza A virus A/California/4/09 (H1N1)); experiment: trimeric HA microarray, transfection set 3
[3] = biological target: recombinant homotrimeric HA, A/Egypt/3300-NAMRU3/08 H5N1 (Influenza A virus A/Egypt/3300-NAMRU3/08 (H5N1)); experiment: trimeric HA microarray, transfection set 3
[4] = biological target: recombinant homotrimeric HA, A/Hong Kong/1073/99 H9N2 (Influenza A virus A/Hong Kong/1073/99 (H9N2)); experiment: trimeric HA microarray, transfection set 3
[5] = biological target: recombinant homotrimeric HA, A/Hong Kong/2108/03 H9N2 (Influenza A virus A/Hong Kong/2108/03 (H9N2)); experiment: trimeric HA microarray, transfection set 3
[6] = biological target: recombinant homotrimeric HA, A/Indonesia/5/05 H5N1 (Influenza A virus A/Indonesia/5/05 (H5N1)); experiment: trimeric HA microarray, transfection set 3
[7] = biological target: recombinant homotrimeric HA, A/Japan/305/57 H2N2 (Influenza A virus A/Japan/305/57 (H2N2)); experiment: trimeric HA microarray, transfection set 3
[8] = biological target: recombinant homotrimeric HA, A/Netherlands/219/03 H7N7 (Influenza A virus A/Netherlands/219/03 (H7N7)); experiment: trimeric HA microarray, transfection set 3
[9] = biological target: recombinant homotrimeric HA, A/Solomon Islands/3/06 H1N1 (Influenza A virus A/Solomon Islands/3/06 (H1N1)); experiment: trimeric HA microarray, transfection set 3
[10] = biological target: recombinant homotrimeric HA, A/South Carolina/1/18 H1N1 (Influenza A virus A/South Carolina/1/18 (H1N1)); experiment: trimeric HA microarray, transfection set 3
[11] = biological target: recombinant homotrimeric HA, A/Vietnam/1203/04 H5N1 (Influenza A virus A/Vietnam/1203/04 (H5N1)); experiment: trimeric HA microarray, transfection set 3
[12] = biological target: recombinant homotrimeric HA, A/Wisconsin/67/05 H3N2 (Influenza A virus A/Wisconsin/67/05 (H3N2)); experiment: trimeric HA microarray, transfection set 3
[13] = biological target: recombinant homotrimeric HA, A/chicken/Vietnam/NCVD-016/08 H5N1 (Influenza A virus A/chicken/Vietnam/NCVD-016/08 (H5N1)); experiment: trimeric HA microarray, transfection set 3
[14] = biological target: recombinant homotrimeric HA, A/common magpie/Hong Kong/5052/07 H5N1 (Influenza A virus A/common magpie/Hong Kong/5052/07 (H5N1)); experiment: trimeric HA microarray, transfection set 3
[15] = biological target: recombinant homotrimeric HA, A/duck/Yangzhou/02/05 H8N4 (Influenza A virus A/duck/Yangzhou/02/2005 (H8N4)); experiment: trimeric HA microarray, transfection set 3
[16] = biological target: recombinant homotrimeric HA, A/northern shoveler/California/HKWF115/07 (Influenza A virus A/northern shoveler/California/HKWF115/2007 (H6N1)); experiment: trimeric HA microarray, transfection set 3
[17] = biological target: recombinant homotrimeric HA, A/swine/Ontario/01911-2/99 H4N6 (Influenza A virus A/swine/Ontario/01911-2/99 (H4N6)); experiment: trimeric HA microarray, transfection set 3
[18] = biological target: hemagglutinin (HA) of influenza A/Solomon Islands/3/06 H1N1 (Influenza A virus A/Solomon Islands/3/2006 (H1N1)); experiment: ELISA, inactivated whole virions coated; transfection supernatant set 1
[19] = biological target: hemagglutinin (HA) of influenza A/Wisconsin/67/05 H3N2 (Influenza A virus A/Wisconsin/67/2005 (H3N2)); experiment: as above
[20] = biological target: hemagglutinin (HA) of influenza A/Japan/305/57 H2N2 (Influenza A virus A/Japan/305/1957 (H2N2)) (UniProt P03451); experiment: ELISA, inactivated whole virions coated; transfection supernatant set 3
[21] = biological target: hemagglutinin (HA) of influenza A/Solomon Islands/3/06 H1N1 (Influenza A virus A/Solomon Islands/3/2006 (H1N1)); experiment: as above
[22] = biological target: hemagglutinin (HA) of influenza A/Wisconsin/67/05 H3N2 (Influenza A virus A/Wisconsin/67/2005 (H3N2)); experiment: as above
[23] = biological target: hemagglutinin (HA) of influenza A/Solomon Islands/3/06 H1N1 (Influenza A virus A/Solomon Islands/3/2006 (H1N1)); experiment: ELISA, inactivated whole virions coated; transfection supernatant set 5
[24] = biological target: hemagglutinin (HA) of influenza A/Wisconsin/67/05 H3N2 (Influenza A virus A/Wisconsin/67/2005 (H3N2)); experiment: as above

## TCN-202 (2N9) (antibody)
[1]
  Trimeric HA Binding RLU: 33 RLU
[2]
  Trimeric HA Binding RLU: 205 RLU
[3]
  Trimeric HA Binding RLU: 63 RLU
[4]
  Trimeric HA Binding RLU: 57 RLU
[5]
  Trimeric HA Binding RLU: 30 RLU
[6]
  Trimeric HA Binding RLU: 43 RLU
[7]
  Trimeric HA Binding RLU: 42 RLU
[8]
  Trimeric HA Binding RLU: 247 RLU
[9]
  Trimeric HA Binding RLU: 57 RLU
[10]
  Trimeric HA Binding RLU: 731 RLU
[11]
  Trimeric HA Binding RLU: 967 RLU
[12]
  Trimeric HA Binding RLU: 51 RLU
[13]
  Trimeric HA Binding RLU: 14 RLU
[14]
  Trimeric HA Binding RLU: 16 RLU
[15]
  Trimeric HA Binding RLU: 66 RLU
[16]
  Trimeric HA Binding RLU: 73 RLU
[17]
  Trimeric HA Binding RLU: 54 RLU
[18]
  OD450: 0.07 OD450
[19]
  OD450: 0.07 OD450
[20]
  OD450: 0.08 OD450
[21]
  OD450: 0.1 OD450
[22]
  OD450: 0.08 OD450
[23]
  OD450: 0.07 OD450
[24]
  OD450: 0.07 OD450
